The record followed here is doi:10.1101/2025.02.06.636808, “DNA Binding by the Escherichia coli MinC–MinD Complex Requires the MinC Interdomain Linker” (bioRxiv, 2025).

The target in experiment [1] is T1, MinD (E. coli) (E. coli, UniProt P0AEZ3 1-270).
T1 construct: source: E. coli Rosetta(DE3)pLysS, purified (nickel IMAC, desalting); His tag removed with thrombin; not shown: T7 tag, N-terminal, kept
T1 sequence (looked up): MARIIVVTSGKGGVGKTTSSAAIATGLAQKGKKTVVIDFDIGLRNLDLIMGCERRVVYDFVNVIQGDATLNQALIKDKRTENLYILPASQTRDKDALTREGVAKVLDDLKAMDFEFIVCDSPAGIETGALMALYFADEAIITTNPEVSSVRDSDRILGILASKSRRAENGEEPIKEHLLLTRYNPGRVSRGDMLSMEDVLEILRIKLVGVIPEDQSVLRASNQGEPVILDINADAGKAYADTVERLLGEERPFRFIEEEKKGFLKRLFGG
As to the kind of experiment: co-sedimentation; liposome co-sedimentation without DNA: MinD 2 uM, MinC 2 uM, 0.5 mg/mL liposomes, 1 mM ATP, ATPase buffer (25 mM Tris-HCl pH 7.5, 50 mM KCl, 5 mM MgCl2, 5% glycerol); SDS-PAGE, Coomassie. Conditions: both partners purified.

Experiment [2] deals with T1, MinD (E. coli). As to the kind of experiment: co-sedimentation; liposome co-sedimentation without DNA, competition: MinD 1 uM, MinC 1 uM, increasing MinE, 160 ug/mL liposomes, 1 mM ATP, ATPase buffer; SDS-PAGE, Coomassie. Conditions: both partners purified.

B1: MinC-GS linker mutant (natural protein, E. coli)
chain: MSNTPIELKGSSFTLSVVHLHEAEPKVIHQALEDKIAQAPAFLKHAPVVLNVSALEDPVNWSAMHKAVSATGLRVIGVSGCKDAQLKAEIEKMGLPILTEGGSPVTKTRLIDTPVRSGQRIYAPQCDLIVTSHVSAGAELIADGNIHVYGMMRGRALAGASGDRETQIFCTNLMAELVSIAGEYWLSDQIPAEFYGKAARLQLVENALTVQPLN
notes: MinC, E. coli MG1655, N-terminal part before the linker, residues 1-101; linker that replaces residues 102-120 of MinC; MinC, E. coli MG1655, C-terminal part after the linker, residues 121-231; Made from pET28a-MinC by amplifying the whole plasmid except residues 102-120; source: E. coli Rosetta(DE3)pLysS, purified (nickel IMAC, desalting); His tag removed with thrombin; not shown: T7 tag, …
As for B1, in experiment [1], the binding result is “binds”.

B2: MinC-3xAGGSG linker mutant (natural protein, E. coli)
chain: MSNTPIELKGSSFTLSVVHLHEAEPKVIHQALEDKIAQAPAFLKHAPVVLNVSALEDPVNWSAMHKAVSATGLRVIGVSGCKDAQLKAEIEKMGLPILTEGAGGSGAGGSGAGGSGPVTKTRLIDTPVRSGQRIYAPQCDLIVTSHVSAGAELIADGNIHVYGMMRGRALAGASGDRETQIFCTNLMAELVSIAGEYWLSDQIPAEFYGKAARLQLVENALTVQPLN
notes: MinC, E. coli MG1655, N-terminal part before the linker, residues 1-101; linker that replaces residues 102-120 of MinC: AGGSG repeated three times; MinC, E. coli MG1655, C-terminal part after the linker, residues 121-231; source: E. coli Rosetta(DE3)pLysS, purified (nickel IMAC, desalting); His tag removed with thrombin; not shown: T7 tag, N-terminal, kept
For the molecule B2, in experiment [2], the binding result is recorded as “binds”.

B3: MinC-4xAGGSG linker mutant (natural protein, E. coli)
chain: MSNTPIELKGSSFTLSVVHLHEAEPKVIHQALEDKIAQAPAFLKHAPVVLNVSALEDPVNWSAMHKAVSATGLRVIGVSGCKDAQLKAEIEKMGLPILTEGAGGSGAGGSGAGGSGAGGSGPVTKTRLIDTPVRSGQRIYAPQCDLIVTSHVSAGAELIADGNIHVYGMMRGRALAGASGDRETQIFCTNLMAELVSIAGEYWLSDQIPAEFYGKAARLQLVENALTVQPLN
notes: MinC, E. coli MG1655, N-terminal part before the linker, residues 1-101; linker that replaces residues 102-120 of MinC: AGGSG repeated four times; MinC, E. coli MG1655, C-terminal part after the linker, residues 121-231; source: E. coli Rosetta(DE3)pLysS, purified (nickel IMAC, desalting); His tag removed with thrombin; not shown: T7 tag, N-terminal, kept
As to B3, in experiment [2], the binding result is “binds”.

B4: MinC-1xAGGSG linker mutant (natural protein, E. coli)
chain: MSNTPIELKGSSFTLSVVHLHEAEPKVIHQALEDKIAQAPAFLKHAPVVLNVSALEDPVNWSAMHKAVSATGLRVIGVSGCKDAQLKAEIEKMGLPILTEGAGGSGPVTKTRLIDTPVRSGQRIYAPQCDLIVTSHVSAGAELIADGNIHVYGMMRGRALAGASGDRETQIFCTNLMAELVSIAGEYWLSDQIPAEFYGKAARLQLVENALTVQPLN
notes: MinC, E. coli MG1655, N-terminal part before the linker, residues 1-101; linker that replaces residues 102-120 of MinC; MinC, E. coli MG1655, C-terminal part after the linker, residues 121-231; source: E. coli Rosetta(DE3)pLysS, purified (nickel IMAC, desalting); His tag removed with thrombin; not shown: T7 tag, N-terminal, kept
Consider B4, for which the binding result in experiment [2] is listed as “binds”.

B5: MinC-2xAGGSG linker mutant (natural protein, E. coli)
chain: MSNTPIELKGSSFTLSVVHLHEAEPKVIHQALEDKIAQAPAFLKHAPVVLNVSALEDPVNWSAMHKAVSATGLRVIGVSGCKDAQLKAEIEKMGLPILTEGAGGSGAGGSGPVTKTRLIDTPVRSGQRIYAPQCDLIVTSHVSAGAELIADGNIHVYGMMRGRALAGASGDRETQIFCTNLMAELVSIAGEYWLSDQIPAEFYGKAARLQLVENALTVQPLN
notes: MinC, E. coli MG1655, N-terminal part before the linker, residues 1-101; linker that replaces residues 102-120 of MinC: AGGSG repeated twice; MinC, E. coli MG1655, C-terminal part after the linker, residues 121-231; source: E. coli Rosetta(DE3)pLysS, purified (nickel IMAC, desalting); His tag removed with thrombin; not shown: T7 tag, N-terminal, kept
For the molecule B5, the binding result in experiment [2] was “binds”.

B6: MinC19RL linker mutant (natural protein, E. coli)
chain: MSNTPIELKGSSFTLSVVHLHEAEPKVIHQALEDKIAQAPAFLKHAPVVLNVSALEDPVNWSAMHKAVSATGLRVIGVSGCKDAQLKAEIEKMGLPILTEGAGGSGAGGSGAGGSGAGGSPVTKTRLIDTPVRSGQRIYAPQCDLIVTSHVSAGAELIADGNIHVYGMMRGRALAGASGDRETQIFCTNLMAELVSIAGEYWLSDQIPAEFYGKAARLQLVENALTVQPLN
notes: MinC, E. coli MG1655, N-terminal part before the linker, residues 1-101; linker that replaces residues 102-120 of MinC: as the 4x linker but without the last glycine, 19 residues; MinC, E. coli MG1655, C-terminal part after the linker, residues 121-231; source: E. coli Rosetta(DE3)pLysS, purified (nickel IMAC, desalting); His tag removed with thrombin; not shown: T7 tag, N-terminal, kept
For B6, the binding result in experiment [1] was “binds”.

B7: MinE (E. coli) (natural protein, UniProt P0A734 1-88, looked up)
chain: MALLDFFLSRKKNTANIAKERLQIIVAERRRSDAEPHYLPQLRKDILEVICKYVQIDPEMVTVQLEQKDGDISILELNVTLPEAEELK
notes: a T7 tag from pET28a may be left; source: E. coli Rosetta(DE3)pLysS, purified (nickel IMAC, desalting)
B7: the binding result in experiment [2] was “binds”.
